Tests used:
[1] = target: bovine serum albumin, P02769
[2] = target: gliadin
[3] = target: T1, gluten immunogenic peptide 26-mer from γ-gliadin
T1 chain: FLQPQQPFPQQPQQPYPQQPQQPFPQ

[4] = target: T2, gluten immunogenic peptide 33-mer from α-gliadin
T2 chain: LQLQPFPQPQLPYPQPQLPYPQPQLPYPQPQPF

Chain of bovine serum albumin, P02769 (P02769 25-607): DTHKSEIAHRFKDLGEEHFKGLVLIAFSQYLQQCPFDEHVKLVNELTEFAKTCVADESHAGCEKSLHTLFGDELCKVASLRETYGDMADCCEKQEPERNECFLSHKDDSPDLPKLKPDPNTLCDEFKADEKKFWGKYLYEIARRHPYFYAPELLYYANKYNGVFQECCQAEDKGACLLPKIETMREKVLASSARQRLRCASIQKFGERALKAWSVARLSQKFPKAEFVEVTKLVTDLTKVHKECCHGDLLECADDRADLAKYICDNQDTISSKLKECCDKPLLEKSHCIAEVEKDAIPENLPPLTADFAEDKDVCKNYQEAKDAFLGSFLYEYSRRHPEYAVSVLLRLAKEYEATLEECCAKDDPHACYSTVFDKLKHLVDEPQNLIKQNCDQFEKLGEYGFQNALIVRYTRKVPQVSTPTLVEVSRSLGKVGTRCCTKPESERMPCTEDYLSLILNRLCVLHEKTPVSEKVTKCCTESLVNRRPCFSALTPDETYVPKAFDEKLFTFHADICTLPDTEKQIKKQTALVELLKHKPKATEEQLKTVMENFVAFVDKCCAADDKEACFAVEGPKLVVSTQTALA

B1: aspartic protease Rhodotorulapepsin (protein)
chain: SLTSYQNDNLWAGKITIGSPAQSFIMDFDTGSSDLWVPSSACSGSGCGTHARYTATSSSTSKAVTGKTLNVQYGDGSTASGPVYSDSVTVGGLTATGQTFGTATTLTGNFGSSPSDGLVGMAYPALSQLGVPPFFNTLWSEGRVAANSFSFRLATQNSAASELYLGGLNSAKYVAGTTGYTPVISQTYWAINTNVAVNGQAVSGLGTLAAIADTGTTLIVVPTADAQTFWASVPGAAPYSGGGGYYTFPCNQAPKVTFQFPGSLTKWATPYLNLGTVSYGSNQCVGAIVGQDAGLNAWILGDSFLKGVYTTFDFANNRVGFSKLA
Question: For B1, which “relative proteolytic activity on BSA at different pH (A280 after TCA)” value [1] is on record?
Answer: the maximum proteolytic activity of the aspartic protease Rhodotorulapepsin was found at pH 2.5

Question: What about the “relative proteolytic activity on BSA at different temperatures (A280 after TCA)” value [1] of the same protein?
Answer: the aspartic protease Rhodotorulapepsin still has relative activity of 93% at 40 °C

Question: And the “hydrolysis of gliadin 7.5 mg/ml, SDS-PAGE (pH 3.0, 3 h)” value [2]?
Answer: even only 250 µg/ml of aspartic protease Rhodotorulapepsin was included in the enzyme mixture, gliadin was completely hydrolyzed

Question: What about the “hydrolysis of gliadin at pH 2.5 to 7.0, R5 ELISA of residual gliadin” value [2] of the same protein?
Answer: the maximum activity of the aspartic protease Rhodotorulapepsin on gliadin was at pH 2.5

Question: And the “hydrolysis of gliadin, SDS-PAGE” value [2]?
Answer: gliadin had been hydrolyzed by the aspartic acid protease Rhodotorulapepsin after 0.5 hours of reaction under all of the three pH conditions of pH2.5, pH3.0, and pH5.0

Question: And the “hydrolysis of gliadin, SDS-PAGE of residual gliadin (pH 3.0, 37° C., enzyme:gliadin 1:500)” value [2]?
Answer: after reaction for 30 minutes, more than 90% of gliadin has been hydrolyzed

Question: What about the “relative activity to hydrolyze gliadin, ELISA of residual gliadin (pH 2.5, 1.5 h, pepsin 1 mg/ml plus Rhodotorulapepsin 0.05 mg/ml)” value [2] of the same protein?
Answer: the relative activity thereof is increased by 54% after adding the aspartic protease Rhodotorulapepsin

Question: And the “hydrolysis of the 26-mer, RP-HPLC (3 h, 37° C.)” value [3]?
Answer: the optimal pH value for the hydrolysis reaction of the aspartic protease Rhodotorulapepsin on gluten immunogenic 26-mer is at pH 3.0

Question: And the “hydrolysis of the 33-mer, RP-HPLC (3 h, 37° C.)” value [4]?
Answer: the optimal pH value for the hydrolysis reaction of the aspartic protease Rhodotorulapepsin on gluten immunogenic 33-mer is at pH 5.0

— patent publication US20240167012
